Test results as given in patent US20020076785.
Entries after “also recorded” stand apart in the source; their conditions may differ.

Tests used:
[1] = target: recombinant C. elegans Rho (UniProt Q22038)
[2] = target: recombinant C. elegans Rac (UniProt Q03206)
[3] = target: recombinant C. elegans Cdc42 (UniProt Q05062)
Sequence of recombinant C. elegans Cdc42 (Q05062 whole entry): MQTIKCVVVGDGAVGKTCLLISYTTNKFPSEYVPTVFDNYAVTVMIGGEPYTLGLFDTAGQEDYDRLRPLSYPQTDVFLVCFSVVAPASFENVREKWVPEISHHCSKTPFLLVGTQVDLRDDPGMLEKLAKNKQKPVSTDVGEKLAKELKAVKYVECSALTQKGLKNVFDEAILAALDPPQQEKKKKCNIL

Sequence of recombinant C. elegans Rho (Q22038 whole entry): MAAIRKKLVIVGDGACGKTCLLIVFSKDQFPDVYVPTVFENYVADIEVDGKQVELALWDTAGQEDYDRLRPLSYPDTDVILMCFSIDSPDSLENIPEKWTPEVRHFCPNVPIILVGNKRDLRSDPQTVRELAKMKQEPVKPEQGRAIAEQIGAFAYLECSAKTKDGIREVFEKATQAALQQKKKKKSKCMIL

GST-CYK-4-GAP (GST fused to the GAP domain of CYK-4, amino acids 407-681)
GTP hydrolysis [1]: The GAP domain of CYK-4 promotes GTP hydrolysis by all three tested GTPases; also recorded: the CYK-4 GAP domain is more active towards Rac and Cdc42 than towards Rho
GTP hydrolysis [2]: The GAP domain of CYK-4 promotes GTP hydrolysis by all three tested GTPases; also recorded: the CYK-4 GAP domain is more active towards Rac and Cdc42 than towards Rho
GTP hydrolysis [3]: The GAP domain of CYK-4 promotes GTP hydrolysis by all three tested GTPases; also recorded: the CYK-4 GAP domain is more active towards Rac and Cdc42 than towards Rho
